{
  "source": "patent US20220195015A1",
  "about": "(published 2022)",
  "data": [
    {"biological_target": "SARS-CoV-2 spike protein receptor binding domain (RBD) (SARS-CoV-2, UniProt P0DTC2 319-539)", "assay": "ELISA on plate-coated RBD", "units": {"EC50": "µg/mL"}, "values": [
      {"binder": "C704 (antibody, V domains shown) VH: VQLVESGGGVVQPGRSLRLSCAASGFTFSRYGMHWVRQAPGKGLEWVAVSSYDGSNEYYANSVKGRFTISRDNSKNTLYLQMNSLRAEDTAVYYCAKTGASYCGGDCPFHFDYWGQGTLVTVSS VL: IRMTQSPSSLSASVGDRVTITCQASQDINNYLNWYQQKPGKAPKLLIYDASDLETGVPSRFSGGGSGTDFTFTISSLQPEDIATYYCQHYNNLPITFGQGTRLEIK", "EC50": 0.0134},
      {"binder": "C709 (antibody, V domains shown) VH: QVQLVQSGAEVRKPGASVKVSCMASGYTFNTYDINWVRQGTGQGLEWMGWMNPNSGNTGHAQKFQGRVAMTVNTSMNTAYMELSSLRSEDTAVYYCARGADMLNVAVGADFDYWGQGTLVTVSS VL: QSALTQPPSASGSPGQSVTISCTGTSSDVGGYNFVSWFQQHPGKAPKLMIYEVSKRPSGVPDRFSGSKSANTASLTVSGLQAEDEADYFCSSYAGSNNWVFGGGTKLTVL", "EC50": 0.00756},
      {"binder": "C706 (antibody, V domains shown) VH: EVQLVESGGGLVKPGGSLRLSCAASGFTFSNVWMSWVRQAPGKGLEWVGRIKSKIDGGTTEYAAPVKGRFIISRDDSKNTLSLQMNSLKTEDTAVYYCTTDHGREPPVHWGQGTLVTVSS VL: EIVLTQSPGTLSLSPGERASLSCRARQSVYSNYLAWYQHKSGQAPRLLFYGASSRATDIPDRFSASGSGTDFTLTISRLEPEDFAVYYCLQYGPSPTFGPGTRLEIK", "EC50": 0.0735},
      {"binder": "C048 (antibody, V domains shown) VH: VQLQESGPGLVKPSETLSLTCAVSGGSVSSGNYYWNWIRQPPGKGLEWIGYIYYSGSTNYNPSLKSRVTISVDTSKNQFSLKLNSVTAADTAVYHCARETYYYDSSGYYISDAFDIWGQGTMVTVSS VL: not shown", "EC50": 0.0048},
      {"binder": "C708 (antibody, V domains shown) VH: EVQLVESGGGLVQPGGSLRLSCAASGFSFSTYWMSWVRQAPGKGLEWVADIKQDGSEKYFVDSVKGRFTISRDNAKNSLYLHLNSLRAEDTAVYYCAREMAGSGNYYWFGYGMDVWGQGTTVTVSS VL: IRMTQSPSSVSASVGDRVTITCRASQGISSWLAWYQQKPGKAPKLLIYAASSLQSGVPSRFSGSESGTDFTLTISSLQPEDFATYYCQQANSFPLTFGGGTKVEIK", "EC50": 0.13},
      {"binder": "C049 (antibody, V domains shown) VH: QVQLQESGPGLVKPSETLSLTCTVSGGSVSSGTFYWSWIRQPPGKGLEWIGYIHYSGSTNYNPSLKSRVTISVDTSKNQFSLRLSSVTAADTAVYYCARESFYYDRSGYYGSDAFDIWGQGTMVTVSS VL: DIQMTQSPSTLSSSVGDRVTITCRASQNISRWLAWYQQKPGKAPKLLIYKASTLESGVPSRFSGSGSGTKFTLTISSLQPDDFATYYCQQYNSYLYTFGQGTKLEIK", "EC50": 0.00409},
      {"binder": "C707 (antibody, V domains shown) VH: EVQLVESGGGLVKPGGSLRLSCAASGFTFSSYSMNWVRQAPGKGLAWVSSISSSNNIIYYADSVKGRFTISRDDAKDSLYLHMKSLRADDTAVYFCARVPSWAPYQLLPGPFDYWGQGILVTVSS VL: IRMTQSPSSLSASVGDRVTITCQASQAIASYLSWYQHKPGRAPKLLIYDASNLEIGVPSRFSGSGSGTDFTFTISSLQSEDNATYYCQQYESLPGTFGGGTKVEIK", "EC50": 0.026},
      {"binder": "C710 (antibody, V domains shown) VH: QVQLQESGPGLVKPSETLSLTCIVSGGSINSTTYYWDWIRQSPGKGLEWIGSIFYTGITYYSPSLKTRVTISVDTSKNQFSLRLNSMTAADTAVYYCARRLRQLWFGPWFDPWGQGTLVTVSS VL: QSALTQPPSASGSPGQSVTISCTGTRSDVGDYNYVSWYQQHPDKAPKLIIFEVTKRPSGVPDRFSGSKSGNTASLTVSGLQAEDEADYYCSSYAGSSNVMFGGGTKLTVL", "EC50": 0.0178},
      {"binder": "C703 (antibody, V domains shown) VH: EVQLLESGGGLVQPGGSLRLSCAGSGFTFSHYALSWVRQAPGKGLEWVSCISGTGGNSHYADSVKGRFTSSRDNSKNILYLQMNSLRAEDTAVYFCAKGGDFWSGYLIPFDSWGQGTLVTVSS VL: SYELTQSPSVSVAPGKTARITCGGDSIGSKNVHWYQQKPGQAPVLVMYYDNDRPSGIPERFSGYNSGNTATLSISRVEAGDEADYYCLVWDGSGDPWVFGGGTKLTVL", "EC50": 0.0109}
    ]}
  ]
}
